According to US20260098102A1 (NATIONAL UNIVERSITY CORPORATION KOBE UNIVERSITY, published 2026):

B1: cF44 (IgG1) (antibody, V domains shown)
VH: EVQLVESGGGLVQPGRSLKLSCAASGFTFSNYYMAWVRQAPTKGLEWVTYITTGGGSTYFRDSVKGRFTISRDNAESTLYLQMDSLRSEDTATYYCTAANYGGSYFDYWGQGVMVTVSS
VL: DVQMTQSPSNLAASPGESVSINCKASKSISKYLAWYQQKPGKANKLLIYSGSTLQSGTPSRFSGSGSGTDFTLTIRNLEPEDFGLYYCQQHNEYPPTFGAGTKLELK
notes: Human IgG1 constant region; also called cF44 IgG1 type
B2: cF44 (IgG4p) (antibody, V domains shown)
VH: B1 VH
VL: B1 VL
notes: Human IgG4p (PRO mutation) constant region; also called cF44 IgG4p type
B3: cF44 (IgG2) (antibody, V domains shown)
VH: B1 VH
VL: B1 VL
notes: Human IgG2 constant region; also called cF44 IgG2 type

Molecular target: T1, human SIRPA_V1 protein (human, UniProt P78324 31-504)
T1 construct: Expressed on 293α cells from pcDNA3.2 V5-DEST or pFLAG V5-DEST (FLAG-tagged) vectors; also called human SIRPA Variant 1; hSIRPA V1
T1 sequence (P78324 31-504 limits assumed): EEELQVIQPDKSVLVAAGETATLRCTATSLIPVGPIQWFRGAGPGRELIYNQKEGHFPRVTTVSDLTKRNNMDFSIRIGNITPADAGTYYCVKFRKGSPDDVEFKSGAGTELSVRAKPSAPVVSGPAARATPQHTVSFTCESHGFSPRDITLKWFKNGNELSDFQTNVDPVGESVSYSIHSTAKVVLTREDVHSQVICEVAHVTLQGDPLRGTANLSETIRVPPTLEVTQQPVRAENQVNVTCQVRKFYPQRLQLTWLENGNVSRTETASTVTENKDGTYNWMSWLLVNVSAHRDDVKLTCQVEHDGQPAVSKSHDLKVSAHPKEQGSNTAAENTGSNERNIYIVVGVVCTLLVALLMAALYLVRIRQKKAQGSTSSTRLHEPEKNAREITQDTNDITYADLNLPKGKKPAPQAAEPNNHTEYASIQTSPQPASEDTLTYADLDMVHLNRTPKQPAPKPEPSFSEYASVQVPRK
Experiment: cell-based ELISA on 293α cells expressing FLAG-tagged SIRPA_V1; Abs 490 normalized to FLAG tag
Method: (§1) The 293α cells [described in Example 1)-6] were prepared in a 10% FBS-containing DMEM medium to 5×10⁵ cells/mL. pFLAG V5-DEST-SIRPA_V1, pFLAG V5-DEST-SIRPA_V2, or pFLAG V5-DEST was introduced into the cells using Lipofectamine LTX (Invitrogen), followed by addition of 100 μL per well to a 96-well plate (Corning Incorporated), and cells were cultured overnight in the 10% FBS-containing DMEM medium at 37° C. under a 5% CO₂ condition. The obtained introduced cells were used for cell-based ELISA in a state that they adhered to each other. After the culture supernatant was removed, 50 μL per well of the cD13 (IgG2 and IgG4pf), cF44 (IgG1, IgG2, IgG4p, and IgG4pf), and cF63 (IgG2 and IgG4pf) antibodies prepared in Examples 3 and 4 were added to each of pFLAG V5-DEST-SIRPA_V1, pFLAG V5-DEST-SIRPA_V2, or pFLAG V5-DEST-introduced cells at final concentrations of 0 to 10,000 ng/mL, and the mixture was allowed to stand at 4° C. for one hour. Further, 50 μL per well of anti-FLAG M2 antibody (SIGMA) diluted with 5% FBS-containing PBS to a final concentration of 10,000 ng/mL was added to a well for detecting expression of each SIRPA construct, and the mixture was allowed to stand at 4° C. for one hour. The cells in the well were washed once with 5% FBS-containing PBS, followed by addition of Peroxidase AffiniPure F(ab′)₂ Fragment Goat Anti-Human IgG, Fcγ Fragment Specific (Jackson ImmunoResearch) diluted 1000-fold with 5% FBS-containing PBS, and the mixture was allowed to stand at 4° C. for one hour. The cells in the well were washed five times with 5% FBS-containing PBS, followed by addition of 100 μL per well of an OPD coloration solution [o-phenylenediamine dihydrochloride (Wako Pure Chemical Industries, Ltd.) and H₂O₂ were dissolved in an OPD solution (0.05 M trisodium citrate, 0.1 M disodium hydrogen phosphate dodecahydrate, pH 4.5) at 0.4 mg/mL and 0.6% (v/v), respectively]. A coloration reaction was performed with stirring occasionally, 100 μL per well of 1 M HCl was added to terminate the coloration reaction, and then absorbance at 490 nm was measured with a plate reader ARVO (PerkinElmer Inc.). Binding of the human chimeric anti-human SIRPA antibodies to each construct was standardized by expression of the FLAG tag.

Binder | EC50 (read off the curve) [ng/mL]
B1 | ~40
B2 | ~50
B3 | ~40

Molecular target: T2, human SIRPA_V2 protein (human, UniProt P78324 31-504)
T2 construct: Expressed on 293α cells from pcDNA3.2 V5-DEST or pFLAG V5-DEST (FLAG-tagged) vectors; also called human SIRPA Variant 2; ECD variant (full-length, amino acids 1 to 504)
T2 sequence (P78324 other isoform, or with tags, fused parts or gaps limits assumed): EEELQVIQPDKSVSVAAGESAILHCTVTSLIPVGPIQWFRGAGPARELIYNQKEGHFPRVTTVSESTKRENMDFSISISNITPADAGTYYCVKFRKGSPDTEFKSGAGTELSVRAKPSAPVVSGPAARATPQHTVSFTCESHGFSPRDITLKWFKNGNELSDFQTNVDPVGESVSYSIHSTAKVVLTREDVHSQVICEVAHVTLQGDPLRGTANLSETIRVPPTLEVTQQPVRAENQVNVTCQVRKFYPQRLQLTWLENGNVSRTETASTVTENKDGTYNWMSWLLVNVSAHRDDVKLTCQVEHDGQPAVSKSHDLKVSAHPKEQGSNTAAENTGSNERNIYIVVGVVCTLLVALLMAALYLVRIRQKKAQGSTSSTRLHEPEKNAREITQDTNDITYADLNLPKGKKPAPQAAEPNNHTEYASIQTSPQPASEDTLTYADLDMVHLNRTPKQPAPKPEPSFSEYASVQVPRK
Experiment: blocking cell-based ELISA: peroxidase-labeled CD47-Fc (10,000 ng/mL) on 293α cells expressing SIRPA_V2; y axis = CD47-Fc signal in % of no antibody [ii]

Binder | IC50 (read off the curve) [ng/mL]
B1 | ~400
B2 | ~400
B3 | ~300

Molecular target: T2, human SIRPA_V2 protein
Experiment: cell-based ELISA on 293α cells expressing FLAG-tagged SIRPA_V2; Abs 490 normalized to FLAG tag
Method: as §1

Binder | EC50 (read off the curve) [ng/mL]
B1 | ~40
B2 | ~50
B3 | ~40

Molecular target: T1, human SIRPA_V1 protein
Experiment: blocking cell-based ELISA: peroxidase-labeled CD47-Fc (10,000 ng/mL) on 293α cells expressing SIRPA_V1; y axis = CD47-Fc signal in % of no antibody [i]
Method: After the culture supernatant of the human SIRPA and monkey SIRPA expression vector-introduced 293α cells prepared in Examples 5)-1 and 5)-2, respectively, was removed, 50 μL per well of cD13 (IgG2 and IgG4pf), cF44 (four different constant regions IgG1, IgG2, IgG4p, and IgG4pf), and cF63 (IgG2 and IgG4pf) diluted with 5% FBS-containing PBS to final concentrations of 0 to 10,000 ng/mL were added to each of pcDNA3.2 V5-DEST-SIRPA_V1, pcDNA3.2 V5-DEST-monkey SIRPA, and pcDNA3.2 V5-DEST-introduced 293α cells, immediately followed by addition of 50 μL per well of peroxidase-labeled CD47-Fc prepared in 5% FBS-containing PBS at a final concentration of 10,000 ng/ml, and the mixture was allowed to stand at 4° C. for one hour. Thereafter, the SIRPA-CD47 binding inhibitory activity was evaluated in the same manner as in 1)-6-3.

Binder | IC50 (read off the curve) [ng/mL]
B1 | ~400
B2 | ~500
B3 | ~400
